This passage reports Kd results from patent publication US20060110800A1 (ZymoGenetics, published 2006).

The target in this assay is T1, 125I-IL-13 (UniProt P35225 35-146, limits assumed, 125I label (site not stated)).
T1 construct: also called labeled IL-13; interleukin 13
Description: saturation binding analysis of 125I-IL-13 on BHK cells expressing Zcytor2. As for the experimental part: The binding of ¹²⁵I-IL-13 to wild-type and Zcytor2-transfected BHK, TF-1, and BaF3 cells was determined. BHK cells were assayed in 6-well culture plates. TF-1 and BaF3 cells were assayed in microcentrifuge tubes. Cells were combined with 500 μl of either solution A (15 ml of binding buffer [RPMI containing 20 mM Tris pH7.4, 0.05% NaN₃, and 3 mg/ml BSA] plus 263 μl of ¹²⁵I-IL-13 [5.7×10⁷ cpm/ml]) or solution B (solution A containing 15 μl of cold 25 μg/ml IL-13). After a 2-hour incubation, cells were washed three times with 500 μl binding buffer and lysed in 500 μl of 400 mM NaOH. Lysates were transferred to tubes for gamma counting.

T1 sequence (P35225 35-146 limits assumed): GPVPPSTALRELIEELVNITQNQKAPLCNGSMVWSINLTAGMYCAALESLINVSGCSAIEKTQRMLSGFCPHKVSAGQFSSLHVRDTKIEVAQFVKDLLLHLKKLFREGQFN

B1: human Zcytor2 receptor expressed on transfected BHK cells (receptor)
chain: SSDTEIKVNPPQDFEIVDPGYLGYLYLQWQPPLSLDHFKEYTVEYELKYRNIGSETWKTIITKNLHYKDGFDLNKGIEAKIHTLLPWQCTNGSEVQSSWAETTYWISPQGIPETKVQDMDCVYYNWQYLLCSWKPGIGVLLDTNYNLFYWYEGLDLALQCVDYIKADGQNIGCRFPYLEASDYKDFYICVNGSSENKPIRSSYFTFQLQNIVKPLPPVYLTFTRESSCEIKLKWGIPLGPIPARCFDYEIEIREDDTTLVTATVENETYTLKTTNETRQLCFVVRSKVNIYCSDDGIWSEWSDKQCWEGEDLSKKTLLRFWLPFGFILILVIFVTGLLLRKPNTYPKMIPEFFCDT
notes: also called BHK/Zcytor2 cells; Zcytor2-transfected BHK
As for B1, binding was put at a Kd of 0.59 nM.

What is called Kd is the equilibrium constant for the complex coming apart.
